Experimental data reported in patent publication US20100184047A1, “SCREENING AND THERAPEUTIC METHOD FOR NSCLC TARGETING THE CDCA8-AURKB COMPLEX” (ONCOTHERAPY SCIENCE, INC., priority 2007, published 2010).
Residues, ends and D or L forms follow the SMILES beside them.

T1: CDCA8delta13
T1 chain: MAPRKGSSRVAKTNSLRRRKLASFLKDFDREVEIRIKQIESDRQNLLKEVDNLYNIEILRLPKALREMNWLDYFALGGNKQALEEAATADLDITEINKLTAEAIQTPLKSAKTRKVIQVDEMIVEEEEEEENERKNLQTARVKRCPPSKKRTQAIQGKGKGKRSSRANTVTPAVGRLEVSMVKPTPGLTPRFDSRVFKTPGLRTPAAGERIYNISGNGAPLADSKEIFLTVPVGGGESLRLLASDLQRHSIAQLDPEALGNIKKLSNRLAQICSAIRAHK

T2: CDCA8delta11
T2 chain: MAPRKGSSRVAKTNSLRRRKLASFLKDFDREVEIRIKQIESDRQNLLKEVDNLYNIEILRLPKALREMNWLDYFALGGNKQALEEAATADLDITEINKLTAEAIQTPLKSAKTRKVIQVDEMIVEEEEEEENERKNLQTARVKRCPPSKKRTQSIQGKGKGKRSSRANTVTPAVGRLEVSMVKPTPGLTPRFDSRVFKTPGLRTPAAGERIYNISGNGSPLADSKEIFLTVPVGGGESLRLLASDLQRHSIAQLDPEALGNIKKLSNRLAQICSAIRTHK

T3: full-length recombinant CDCA8 protein (wild-type, N-terminal His tag)
T3 chain: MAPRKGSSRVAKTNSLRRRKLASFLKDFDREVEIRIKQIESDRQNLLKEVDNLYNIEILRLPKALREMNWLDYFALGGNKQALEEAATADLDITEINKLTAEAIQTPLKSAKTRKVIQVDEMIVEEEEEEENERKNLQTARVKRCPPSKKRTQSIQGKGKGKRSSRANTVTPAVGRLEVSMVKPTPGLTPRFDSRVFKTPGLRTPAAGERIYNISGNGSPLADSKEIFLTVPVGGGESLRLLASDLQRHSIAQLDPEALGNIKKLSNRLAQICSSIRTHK

T4: CDCA8delta8
T4 chain: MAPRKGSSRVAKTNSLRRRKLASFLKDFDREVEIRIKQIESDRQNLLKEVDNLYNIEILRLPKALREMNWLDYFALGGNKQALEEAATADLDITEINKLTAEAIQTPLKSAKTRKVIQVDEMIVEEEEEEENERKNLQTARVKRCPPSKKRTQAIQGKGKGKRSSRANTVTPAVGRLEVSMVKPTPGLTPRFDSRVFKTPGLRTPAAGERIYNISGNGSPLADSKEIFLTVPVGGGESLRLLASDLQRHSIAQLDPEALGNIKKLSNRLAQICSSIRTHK

T5: CDCA8delta12
T5 chain: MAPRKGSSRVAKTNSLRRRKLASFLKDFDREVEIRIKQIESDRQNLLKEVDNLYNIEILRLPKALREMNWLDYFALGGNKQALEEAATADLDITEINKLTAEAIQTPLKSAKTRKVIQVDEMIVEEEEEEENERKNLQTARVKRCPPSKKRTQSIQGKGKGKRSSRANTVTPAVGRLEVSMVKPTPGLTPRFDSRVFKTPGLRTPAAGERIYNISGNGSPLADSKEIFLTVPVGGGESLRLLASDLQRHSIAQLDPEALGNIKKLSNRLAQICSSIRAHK

T6: CDCA8delta9
T6 chain: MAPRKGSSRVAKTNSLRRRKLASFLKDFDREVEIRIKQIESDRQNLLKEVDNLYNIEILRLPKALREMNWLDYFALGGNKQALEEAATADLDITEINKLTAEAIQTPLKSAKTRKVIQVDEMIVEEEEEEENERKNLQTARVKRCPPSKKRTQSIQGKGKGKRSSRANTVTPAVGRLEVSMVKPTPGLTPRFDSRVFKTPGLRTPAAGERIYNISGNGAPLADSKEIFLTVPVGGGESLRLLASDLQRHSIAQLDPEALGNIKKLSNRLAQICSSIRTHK

T7: 11R-CDCA8261-280
T7 chain: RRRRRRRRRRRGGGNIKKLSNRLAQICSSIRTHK


Key:
BEAS-2B cells = test: MTT assay with 11R-peptides on bronchial epithelia derived cells; assay type: cell-based; conditions: human bronchial epithelia derived, CDCA8 and AURKB hardly detectable
Description: LC319, SBC-5 cells and BEAS-2B cells were incubated with the 11R-peptides at the concentration of 2.5 micromoles, 5 micromoles, and 7.5 micromoles for seven days. The medium was exchanged at every 48 hours at the appropriate concentrations of each peptide and the viability of cells was evaluated by MTT assay at 7 days after the treatment. To confirm the transduction efficiency of the peptides, the 11R-CDCA8261-280 and its control peptides labeled with fluorescein isothiocyanate (FITC) at N-terminus were synthesized. Transduction of the peptides (2.5-7.5 micromoles) was monitored by fluorescence microscopic observation after a 3-hour incubation of the peptides with the cell lines at 37 degrees C.

CCD19-Lu cells = test: Cell viability with 11R-peptides on normal lung fibroblasts; assay type: cell-based; conditions: normal human lung fibroblast derived, CDCA8 and AURKB hardly detectable
MRC5 cells = test: MTT assay with 11R-peptides on normal lung fibroblasts; assay type: cell-based; conditions: MRC5, normal human lung fibroblast derived; CDCA8 and AURKB hardly detectable
CDCA8delta13 = target: T1, CDCA8delta13
CDCA8delta11 = target: T2, CDCA8delta11
[1] = target: T3, full-length recombinant CDCA8 protein …
CDCA8delta8 = target: T4, CDCA8delta8
CDCA8delta12 = target: T5, CDCA8delta12
CDCA8delta9 = target: T6, CDCA8delta9
11R-CDCA8261-280 = target: T7, 11R-CDCA8261-280

Row | Molecule | cell viability of normal cells (BEAS-2B cells) | cell viability of normal cells (CCD19-Lu cells) | cell viability of normal cells (MRC5 cells) | phosphorylation level in in vitro kinase assay (CDCA8delta1) | phosphorylation level in in vitro kinase assay (CDCA8delta13) | phosphorylation level in in vitro kinase assay (CDCA8delta11) | phosphorylation level in in vitro kinase assay (CDCA8delta2) | phosphorylation level in in vitro kinase assay (CDCA8delta5) | in vitro phosphorylation ([gamma-32P] ATP kinase assay) [1] | phosphorylation level in in vitro kinase assay (CDCA8delta10) | phosphorylation level in in vitro kinase assay (CDCA8delta8) | phosphorylation level in in vitro kinase assay (CDCA8delta6) | phosphorylation level in in vitro kinase assay (CDCA8delta3) | phosphorylation level in in vitro kinase assay (CDCA8delta4) | phosphorylation level in in vitro kinase assay (CDCA8delta12) | phosphorylation level in in vitro kinase assay (CDCA8delta9) | phosphorylation level of rhCDCA8 by rhAURKB in in vitro kinase assay (11R-CDCA8261-280) | phosphorylation level in in vitro kinase assay (CDCA8delta7)
1 | CC[C@H](C)[C@H](NC(=O)[C@H](CC(N)=O)NC(=O)CNC(=O)CNC(=O)CNC(=O)[C@H](CCCNC(=N)N)NC(=O)[C@H](CCCNC(=N)N)NC(=O)[C@H](CCCNC(=N)N)NC(=O)[C@H](CCCNC(=N)N)NC(=O)[C@H](CCCNC(=N)N)NC(=O)[C@H](CCCNC(=N)N)NC(=O)[C@H](CCCNC(=N)N)NC(=O)[C@H](CCCNC(=N)N)NC(=O)[C@H](CCCNC(=N)N)NC(=O)[C@H](CCCNC(=N)N)NC(=O)[C@@H](N)CCCNC(=N)N)C(=O)N[C@@H](CCCCN)C(=O)N[C@@H](CCCCN)C(=O)N[C@@H](CC(C)C)C(=O)N[C@@H](CO)C(=O)N[C@@H](CC(N)=O)C(=O)N[C@@H](CCCNC(=N)N)C(=O)N[C@@H](CC(C)C)C(=O)N[C@@H](C)C(=O)N[C@@H](CCC(N)=O)C(=O)N[C@H](C(=O)N[C@@H](CS)C(=O)N[C@@H](CO)C(=O)N[C@@H](CO)C(=O)N[C@H](C(=O)N[C@@H](CCCNC(=N)N)C(=O)N[C@H](C(=O)N[C@@H](Cc1c[nH]cn1)C(=O)N[C@@H](CCCCN)C(=O)O)[C@@H](C)O)[C@@H](C)CC)[C@@H](C)CC [11R-CDCA8261-280] (H-RRRRRRRRRRRGGGNIKKLSNRLAQICSSIRTHK-OH) | no significant growth suppressive effect | no effect | no off-target effect |  |  |  |  |  |  |  |  |  |  |  |  |  |  | 
2 | recombinant AURKB (Catalog No. 14-489; upstate) (protein) MAQKENSYPWPYGRQTAPSGLSTLPQRVLRKEPVTPSALVLMSRSNVQPTAAPGQKVMENSSGTPDILTRHFTIDDFEIGRPLGKGKFGNVYLAREKKSHFIVALKVLFKSQIEKEGVEHQLRREIEIQAHLHHPNILRLYNYFYDRRRIYLILEYAPRGELYKELQKSCTFDEQRTATIMEELADALMYCHGKKVIHRDIKPENLLLGLKGELKIADFGWSVHAPSLRRKTMCGTLDYLPPEMIEGRMHNEKVDLWCIGVLCYELLVGNPPFESASHNETYRRIVKVDLKFPASVPMGAQDLISKLLRHNPSERLPLAQVSAHPWVRANSRRVLPPSALQSVA |  |  |  | represented the same levels of phosphorylation compared to wild-type CDCA8 | complete disappearance of CDCA8 phosphorylation by AURKB | revealed the reduction of phosphorylation levels in four mutated-constructs | a reduction of phosphorylation levels was detected in three mutated constructs (CDCA8delta2, -delta5, and -delta6), as compared to a wild-type | a reduction of phosphorylation levels was detected in three mutated constructs (CDCA8delta2, -delta5, and -delta6), as compared to a wild-type | CDCA8 was phosphorylated in an AURKB-dose-dependent manner | showed the same levels of phosphorylation compared with wild-type | revealed the reduction of phosphorylation levels in four mutated-constructs | a reduction of phosphorylation levels was detected in three mutated constructs (CDCA8delta2, -delta5, and -delta6), as compared to a wild-type | represented the same levels of phosphorylation compared to wild-type CDCA8 | represented the same levels of phosphorylation compared to wild-type CDCA8 | revealed the reduction of phosphorylation levels in four mutated-constructs | revealed the reduction of phosphorylation levels in four mutated-constructs | the phosphorylation level of rhCDCA8 was significantly suppressed by the treatment with 11R-CDCA8261-280 peptides ... compared to its scramble peptides | showed the same levels of phosphorylation compared with wild-type
